Measurements from doi:10.1101/2024.09.12.612744 (bioRxiv, 2024).
Positions count from the first letter of the chain named. Names may count otherwise.

B1: PKD2 WT channel (hPKD2: 52-793) (domain or fragment, human, UniProt Q13563 52-793, looked up)
chain: LEIEMQRIRQAAARDPPAGAAASPSPPLSSCSRQAWSRDNPGFEAEEEEEEVEGEEGGMVVEMDVEWRPGSRRSAASSAVSSVGARSRGLGGYHGAGHPSGRRRRREDQGPPCPSPVGGGDPLHRHLPLEGQPPRVAWAERLVRGLRGLWGTRLMEESSTNREKYLKSVLRELVTYLLFLIVLCILTYGMMSSNVYYYTRMMSQLFLDTPVSKTEKTNFKTLSSMEDFWKFTEGSLLDGLYWKMQPSNQTEADNRSFIFYENLLLGVPRIRQLRVRNGSCSIPQDLRDEIKECYDVYSVSSEDRAPFGPRNGTAWIYTSEKDLNGSSHWGIIATYSGAGYYLDLSRTREETAAQVASLKKNVWLDRGTRATFIDFSVYNANINLFCVVRLLVEFPATGGVIPSWQFQPLKLIRYVTTFDFFLAACEIIFCFFIFYYVVEEILEIRIHKLHYFRSFWNCLDVVIVVLSVVAIGINIYRTSNVEVLLQFLEDQNTFPNFEHLAYWQIQFNNIAAVTVFFVWIKLFKFINFNRTMSQLSTTMSRCAKDLFGFAIMFFIIFLAYAQLAYLVFGTQVDDFSTFQECIFTQFRIILGDINFAEIEEANRVLGPIYFTTFVFFMFFILLNMFLAIINDTYSEVKSDLAQQKAEMELSDLIRKGYHKALVKLKLKKNTVDDISESLRQGGGKLNFDELRQDLKGKGHTDAEIEAIFTKYDQDGDQELTEHEHQQMRDDLEKEREDLDLDH
B2: PKD2 R638C variant channel (hPKD2: 52-793) (domain or fragment, human, UniProt Q13563 52-793, looked up)
chain: B1 chain with R587C
B3: PKD2 F629S variant channel (hPKD2: 52-793) (domain or fragment, human, UniProt Q13563 52-793, looked up)
chain: B1 chain with F578S

What was measured:
SEC = target: the molecule itself; assay: SEC
cryo-EM structure = target: the molecule itself; assay: cryo-EM structure

| Protein | binding result (SEC) | stoichiometry N (cryo-EM structure) |
| --- | --- | --- |
| B1 | binds | – |
| B2 | – | 4 |
| B3 | – | 4 |
